Consider four molecules from publication PMC11574021, “CEP192 localises mitotic Aurora-A activity by priming its interaction with TPX2” (The EMBO Journal, 2024).

Numbering of substitutions follows the chain as printed. Where “and” joins values, the source holds several entries; their conditions need not be identical. Equal entries are not always repeated. Where no end group is shown, it is not given here. FAM = 5(6)-carboxyfluorescein

In one assay the target is Aurora-A. The following applies: fluorescence binding; ref Park et al. (2023) Figure 3B; cited from earlier work. An excerpt: page 11: cycle control) in these cell lines is still useful. […] As for combined depletion of CEP192 and TPX2, this was very toxic in both U251 and RPE1 cells, unsurprising given that both proteins are essential for proliferation.
Assay [1] relates to His-tagged Aurora-A 122-403 or full-length (1-403). Put plainly: Pull-down of Aurora-A by GST-tagged CEP192. The class given is binding, human. The conditions noted are these: Aurora-A 122-403 and 1-403, western blot. As for the experimental part:
GST-tagged CEP192 constructs were overexpressed in LB and purified on glutathione resin using standard methods. Tagged proteins were eluted in 100 mM TRIS pH 7.5, 500 mM NaCl, 1 mM DTT, 10% Glycerol, 10 mM reduced glutathione, before dialysis in elution buffer without glutathione and storage at −80 °C. About 250 μg of GST-tagged CEP192 constructs or GST as a control were immobilised on 50 μl of glutathione resin (GE healthcare) per sample equilibrated in pull-down buffer (50 mM tris pH 7.5, 300 mM NaCl, 1 mM DTT, 5 mM magnesium chloride, 10% glycerol, 0.1% Tween 20). After 60 min of immobilisation the beads were washed three times in 900 μl of binding buffer to remove any excess protein. About 35 μg of His-tagged Aurora-A 122–403 or full-length protein (1–403) was added to samples of immobilised truncation or GST control. These were left to bind for 60 min on the roller. The beads were pelleted and washed three times in 900 μl of binding buffer. The resin was resuspended in 100 μl of SDS loading dye. After separation on an SDS-PAGE gel, these were transformed onto nitrocellulose membranes before probing with anti-GST and anti-His primary antibodies.
(In western blotting, separated proteins are transferred to a membrane and probed.)

Assay [2] deals with T1, Aurora-A^CAKD (Aurora-A kinase domain, aa 122–403 C290A, C393A), unphosphorylated (human, UniProt O14965 122-403, C290A | C393A).
T1 construct: Aurora-A kinase domain, human, residues 122-403, variant lacking surface cysteines; also called Aurora-A 122–403 C290A C393A; unphosphorylated Aurora-A^CAKD; source: E. coli RIL, co-expressed with lambda phosphatase, purified (HisTrap, TEV cleavage, SEC); not shown: His6, N-terminal, cleaved
T1 sequence (looked up): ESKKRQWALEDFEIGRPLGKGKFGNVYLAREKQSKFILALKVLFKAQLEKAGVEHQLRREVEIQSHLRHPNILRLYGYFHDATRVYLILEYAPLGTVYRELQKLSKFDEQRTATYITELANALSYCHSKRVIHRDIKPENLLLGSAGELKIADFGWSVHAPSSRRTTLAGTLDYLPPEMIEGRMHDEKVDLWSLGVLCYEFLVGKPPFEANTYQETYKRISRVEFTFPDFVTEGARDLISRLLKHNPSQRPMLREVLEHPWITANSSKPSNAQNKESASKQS
The experiment in a line: fluorescence polarisation; direct fluorescence anisotropy: Aurora-A diluted across the plate, 50 nM tracer FAM-CEP192 501–533; 25 mM HEPES pH 7.5, 150 mM NaCl, 2 mM DTT, 5 mM MgCl2, 0.01% Tween 20; 1 h at room temperature. The following applies: both partners purified. (Polarisation of emitted light reports the rotation of a fluorescent probe.)

Assay [3] has as its target T2, phosphorylated Aurora-A^CAKD (Aurora-A 122–403 C290A C393A, not co-expressed with lambda phosphatase) (human, UniProt O14965 122-403, C290A | C393A, phosphorylated (sites of this preparation not printed in the text shown)).
T2 construct: Aurora-A kinase domain, human, residues 122-403; also called phosphorylated kinase; Aurora-A 122–403 C290A C393A phosphorylated protein; source: E. coli B834, not co-expressed with lambda phosphatase, purified (HisTrap, TEV cleavage, SEC); not shown: His6, N-terminal, cleaved
T2 sequence (looked up): T1 sequence (looked up)
The assay is described as above. The following applies: both partners purified.

The target in assay [4] is T3, Aurora-A^M7KD (Aurora-A 122–403 D274N C290A C393A N332A Q335A T347A D350A) (human, UniProt O14965 122-403, D274N | C290A | C393A | N332A | Q335A | T347A | D350A).
T3 construct: Aurora-A kinase domain, human, residues 122-403, with crystal-contact mutations in the C-lobe; also called Aurora-A^M7KD-D; Aurora^M7KD; source: E. coli, purified; not shown: His6, N-terminal, cleaved
T3 sequence (looked up): T1 sequence (looked up) with D153N, N211A, Q214A, T226A, D229A
Described as above. The conditions noted are these: both partners purified.

Assay [5] has as its target T2, phosphorylated Aurora-A^CAKD (Aurora-A …). Put plainly: cell-based or functional assay.
For assay [6], the target named is T1, Aurora-A^CAKD (Aurora-A kinase domain, …). Put plainly: ITC; 250 μM Aurora-A in the syringe, 25 μM CEP192 construct in the cell; 25 °C; 20 mM tris pH 7.5, 200 mM NaCl, 10% glycerol, 5 mM MgCl2. The conditions noted are these: both partners purified.
In assay [7] the target is T2, phosphorylated Aurora-A^CAKD (Aurora-A …). The description is as above. The following applies: both partners purified.
Assay [8] addresses T1, Aurora-A^CAKD (Aurora-A kinase domain, …). Put plainly: fluorescence polarisation; competition: 25 μM Aurora-A kinase domain preincubated with 100 nM FAM-TACC3 522-536, CEP192 competitor serially diluted; 25 mM HEPES pH 7.5, 150 mM NaCl, 2 mM DTT, 5 mM MgCl2, 0.01% Tween 20. The following applies: both partners purified.
Assay [9] has the same target. The experiment in a line: fluorescence polarisation; competition: 10 μM unphosphorylated Aurora-A^CAKD preincubated with 100 nM FAM-TPX2 7-43, CEP192 competitor serially diluted; 25 mM HEPES pH 7.5, 150 mM NaCl, 2 mM DTT, 5 mM MgCl2, 0.01% Tween 20. The following applies: both partners purified.

On to “FAM-CEP192 506-536: labelled peptide of Park et al 2023”, for which the dissociation constant Kd – broadly, the free concentration of one partner at which half of the binding sites on the other are occupied at equilibrium, for simple one-to-one binding – at Aurora-A was 700 nM.

B1: CEP192 405-649: GST-tagged CEP192 fragment 405-649 (protein, UniProt Q8TEP8 405-649, looked up, fragment)
chain: HMDGCLDTETPTVSIQENVDVASLKPISDSGINFTDAIWSPTCERRTCECHESIEKNKDKTDLPQSVVYQNEEGRWVTDLAYYTSFNSKQNLNVSLSDEMNEDFRSGSEAFDLIAQDEEEFNKEHQFIQEENIDAHNTSVALGDTSWGATINYSLLRKSRSTSDLDKDDASYLRLSLGEFFAQRSEALGCLGGGNNVKRPSFGYFIRSPEKREPIALIRKSDVSRGNLEKEMAHLNHDLYSGDLN
modifications: GST tag
As to B1, in assay [1], the “co-precipitation of Aurora-A” value is listed as “able to interact significantly with Aurora”.

B2: FAM-CEP192 501–533 (peptide, UniProt Q8TEP8 501-533, looked up)
peptide: {FAM}-SDEMNEDFRSGSEAFDLIAQDEEEFNKEHQFIQ
notes: Made on Rink amide resin and labelled on resin after synthesis, so N-terminal label and C-terminal amide are likely; MS data of the peptides are in the source data; source: synthetic peptide
B2: the Kd is 420 nM and 1170 nM in assay [2]; 370 nM in assay [3]; 1250 nM in assay [4].

B3: human CEP192 468–533 (domain or fragment, UniProt Q8TEP8 468-533, looked up)
chain: PQSVVYQNEEGRWVTDLAYYTSFNSKQNLNVSLSDEMNEDFRSGSEAFDLIAQDEEEFNKEHQFIQ
notes: also called CEP192_(506-527_F); source: E. coli B834 RIL, purified (HisTrap, TEV cleavage, SEC); for crystallisation co-expressed with Aurora-A^M7KD and co-purified; not shown: His6, N-terminal, cleaved; SUMO, N-terminal, cleaved
Regarding B3, the “ADP-Glo, 10 nM phosphorylated Aurora-A^CAKD with kemptide: IC50 of partial inhibition of kinase activity” value in assay [5] stood at 18 nM. Also, the results for the Kd in assay [6] and in assay [7] were 80.6 nM and 134 nM, respectively. In addition, the figures for the IC50 in [8] and in [9] were 5 µM and 3.7 µM, respectively.
